From patent US20030083261A1, “Class of 12mer peptides that inhibit the function of the mitotic check point protein Mad2” (priority 2001, published 2003)
“Also recorded” adds a separate entry of the source. No end group written: not given here.

What was measured:
[1] = in words; cited from earlier work
[2] = oral tablet; cited from earlier work
[3] = in vivo; cited from earlier work
[4] = cited from earlier work
[5] = oral administration; cited from earlier work
Mad2 [6] = target: T1, Mad2 (Homo sapiens, UniProt Q13257); experiment: Tryptophan fluorescence titration of Mad2 with peptide; format: binding; set-up: made in house; details: addition of peptide to saturation
Procedure: Binding affinity between Mad2 and Cdc20P1 was determined. Two tryptophan residues are located in the proximity of the C-terminal tail of Mad2 that is involved in binding to Cdc20. Thus, binding of Cdc20P1 may affect the tryptophan fluorescence of Mad2. The intensity of tryptophan fluorescence of Mad2 was indeed reduced by 70% upon the addition of Cdc20P1 to saturation. […] This is consistent with the fact that binding of Cdc20P1 to Mad2 occurs with an intermediate exchange rate on the NMR time scale. The relative low affinity of Cdc20P1 toward Mad2 may also be the cause of the slow aggregation phenomenon of the Mad2-Cdc20P1 complex. Thus, Mad2 ligands with higher affinity for Mad2 are required for structural studies.

Mad2 [7] = target: T1, Mad2; experiment: ELISA-type assay of phage display clones on Mad2; format: binding; set-up: made in house; details: phage clone on Mad2
Excerpt: Phage display library with Mad2 was screened and several clones were sequenced and analyzed using ELISA-type assays.
By coincidence, the MBP1 sequence was isolated again and the MBP1 phage clone gave an ELISA reading of 0.62 (OD at 410 nm). […] The peptides with higher ELISA readings than MBP1 are synthesized. As these peptides, including MBP1, contain tryptophan in their sequences, tryptophan fluorescence assay cannot be used to measure the affinities of these peptides toward Mad2. Alternative assays are developed and used.

Mad2 [8] = target: T1, Mad2; experiment: In vitro APC ubiquitination assay (Mad2 inhibition of APC^Cdc20, cyclin B1 substrate); format: biochemical; details: peptide at 100 μM
Excerpt: To determine whether binding of MBP1 affects the association of Mad2 with the intact Cdc20, the inventors performed an in vitro APC ubiquitination assay. In this assay, a Myc-epitope tagged N-terminal fragment of human cyclin B1 was used as the substrate. Purified recombinant human E1, UbcH10 (E2), ATP, and ubiquitin were also included (FIG. 3A). In the presence of active APC (E3), ubiquitin was ligated to the lysine side chains of cyclin B1, forming cyclin-ubiquitin conjugates with isopeptide linkages. The reaction mixture was then analyzed by SDS-PAGE followed by immuno-blotting with an anti-Myc antibody. The appearance and the intensity of the higher molecular weight bands were then used as the criteria for the activity of APC.
Addition of the APC activator, Cdc20, greatly stimulated the activity of APC. […] Therefore, MBP1 can block the biochemical function of Mad2 in vitro.

HeLa cells = experiment: Mitotic arrest by GFP-Mad2 overexpression in HeLa cells; format: cell-based; details: co-transfection of plasmid encoding the peptide; cell shape, DNA-staining, FACS
Excerpt: Overexpression of Mad2 in HeLa cells causes a prolonged mitotic arrest because Mad2 at elevated levels inhibits APCCdc20 in these cells in the absence of spindle damage. […] The cells round up when they undergo mitosis while the interphase cells are flat. […] The cell cycle status of the transfected cells was also confirmed by DNA-staining and by FACS analysis.

Mad2 [9] = target: T1, Mad2; experiment: 1H-15N HSQC NMR binding and competition on 15N-labeled Mad2; set-up: made in house; details: for binding to Mad2: change of the HSQC spectrum of Mad2: addition of peptide to 15N-labeled Mad2; for relative affinity toward Mad2 by competition: two peptides added to Mad2, HSQC spectrum
Procedure: To determine whether MBP1 and Cdc20 bind to the same site on Mad2. Mad2 was pre-incubated with an excess amount of Cdc20P1. MBP1 was then added to the pre-formed Mad2-Cdc20P1 complex. HSQC spectra were taken before and after the addition of MBP1. Prior to the addition of MBP1, Mad2 formed a complex with Cdc20P1 as indicated by the HSQC spectrum. After the addition of MBP1, the HSQC spectrum of the resulting sample looked identical to that of the Mad2-MBP1 complex. Therefore, MBP1 effectively displaced Cdc20P1 away from Mad2 and formed a complex with Mad2 in the presence of Cdc20P1. […] However, it is also conceivable that MBP1 affects the binding of Cdc20P1 to Mad2 in an allosteric fashion.
The relative affinity of Mad2-MBP2 was compared to Mad2-Cdc20P1 and Mad2-MBP1. […] However, when both MBP1 and MBP2 were added to Mad2, the HSQC spectrum of the resulting sample contained two sets of signals of roughly equal intensity: one set of signals belonged to Mad2-MBP1 while the other set was from Mad2-MBP2. […] Furthermore, the exchange between these two bound forms of Mad2 occurs with a rate that is slow on the NMR time scale.

Mad2 [10] = target: T1, Mad2; experiment: Aggregation of Mad2-peptide complex over time (HSQC after incubation at 30° C.); set-up: made in house; details: incubation at 30° C. / extended periods of time
Procedure: To confirm if the complex aggregated over time, an HSQC spectrum was acquired on a freshly prepared ^15N-Mad2-Cdc20P1 sample. This sample was then incubated at 30° C. (the temperature for NMR data acquisition) for 48 hours and another HSQC was acquired.

[11] = target: T2, Mad2 protein (mitotic checkpoint protein Mad2, purified recombinant) (UniProt Q13257 1-205); experiment: tryptophan fluorescence titration of Mad2 with Cdc20P1
T2 construct: also called 15N-Mad2; free Mad2
T2 sequence (Q13257 whole entry): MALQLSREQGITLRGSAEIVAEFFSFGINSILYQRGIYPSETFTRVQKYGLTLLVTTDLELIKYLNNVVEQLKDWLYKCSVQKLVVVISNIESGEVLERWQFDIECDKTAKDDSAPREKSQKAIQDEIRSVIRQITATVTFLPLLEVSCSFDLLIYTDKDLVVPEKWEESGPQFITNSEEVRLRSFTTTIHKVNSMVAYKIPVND

T1 sequence (Q13257 whole entry): as above

For O=NN(CCCl)C(=O)NCCCl [Carmustine, 1,3 bis (2-chloroethyl)-1-nitrosourea], the solubility in water [1] is given as “poorly soluble in water”.

For O=C(O)CCCc1ccc(N(CCCl)CCCl)cc1 [Chlorambucil, 4-[bis(2-chlorethyl)amino] benzenebutanoic acid], the “absorption from the gastrointestinal tract” value [2] is listed as “rapidly and completely absorbed from the gastrointestinal tract”.

In the case of O.O=P1(N(CCCl)CCCl)NCCCO1 (stereo not shown) [Cyclophosphamide, 2H-1,3,2-Oxazaphosphorin-2-amine, N,N-bis(2-chloroethyl)tetrahydro-, 2-oxide, monohydrate], the “stability in the gastrointestinal tract” value [3] is listed as “stable in the gastrointestinal tract”.

In the case of O=NN(CCCl)C(=O)NC1CCCCC1 [Lomustine, 1-(2-chloro-ethyl)-3-cyclohexyl-1 nitrosourea], the “tissue levels versus plasma levels” value ([4]; 15 minutes after intravenous administration) is listed as “comparable to plasma levels” and the “radioactivity excreted in the form of degradation products” value ([4]; within 24 hours, oral radioactive lomustine about 30 mg/m^2 to 100 mg/m^2) is listed as “about half”.

For N[C@@H](Cc1ccc(N(CCCl)CCCl)cc1)C(=O)O [Melphalan, 4-[bis(2-chloroethyl)amino]-L-phenylalanine], the “fraction of patients with multiple myeloma showing a favorable response” value [5] is given as “one third to one half” and the solubility in water [1] is given as “insoluble in water”.

For DVEEAKILRLSGKP [Cdc20P1], the “reduction of intensity of tryptophan fluorescence of Mad2” value (Mad2 [6]) was 70%.

With GWWHIPSPVLRP [clone 11] the ELISA reading (Mad2 [7]) was 1.37 OD at 410 nm.

For “MBP1: 12-residue Mad2-binding peptide identified by phage display, contains tryptophan; probably SWYSYPPPQRAV (SEQ ID NO:2)”, the “effect on the ability of Mad2 to inhibit the ubiquitination activity of APC^Cdc20” value (Mad2 [8]) was “blocked the ability of Mad2 to inhibit APC^Cdc20; also recorded: prevented Mad2 from inhibiting APCCdc20”, the “effect on mitotic arrest caused by GFP-Mad2 overexpression” value (HeLa cells) was “counteracted the action of Mad2; also recorded: did not arrest in mitosis” and the “binding to Mad2: change of the HSQC spectrum of Mad2” value (Mad2 [9]) was “caused dramatic chemical shift changes of the majority of signals”. For the same molecule, the “relative affinity toward Mad2 by competition” value (Mad2 [9]) was “affinity of MBP1 toward Mad2 is higher than that of Cdc20P1; also recorded: MBP1 and MBP2 bind to Mad2 with very similar affinities”, the “aggregation of the Mad2-peptide complex” value (Mad2 [10]) was “stable for extended periods of time and did not aggregate” and the ELISA reading (Mad2 [7]) was 0.62 OD at 410 nm.

In the case of “MBP2: Mad2-binding peptide from phage display sharing strong sequence similarity with Cdc20P1, no tryptophans; probably DARIIKLPVPKP (SEQ ID NO:3)”, the “binding to Mad2: change of the HSQC spectrum of Mad2” value (Mad2 [9]) is reported as “induced dramatic chemical shift changes of the majority of Mad2 signals”, the “relative affinity toward Mad2 by competition” value (Mad2 [9]) is reported as “binds to Mad2 with a higher affinity than Cdc20P1; also recorded: MBP1 and MBP2 bind to Mad2 with very similar affinities” and the “aggregation of the Mad2-peptide complex” value (Mad2 [10]) is reported as “did not form high molecular weight aggregates”.

B1: Cdc20P1 (14-amino acid peptide corresponding to residues 124-137 of Cdc20) (peptide, UniProt Q12834 124-137, looked up)
peptide: DVEEAKILRLSGKP
notes: also called Cdc20P1 peptide; 15N-Cdc20P1
Molecule B1 has a Kd [11] of 3.6 µM.
